Values of other authors, collected in patent publication US6153653A, “Choline compositions and uses thereof” (Protarga, Inc., priority 1997, dated 2000).

Conditions: relative to native tPA

B1: C84S tPA: tPA variants in which a cysteine at position 84 of the growth factor domain of native tPA is replaced by serine (protein, UniProt P00750 36-562, looked up, variant C84S)
Tissue-type plasminogen …: SYQVICRDEKTQMIYQQHQSWLRPVLRSNRVEYCWCNSGRAQCHSVPVKSCSEPRCFNGGTCQQALYFSDFVCQCPEGFAGKCSEIDTRATCYEDQGISYRGTWSTAESGAECTNWNSSALAQKPYSGRRPDAIRLGLGNHNYCRNPDRDSKPWCYVFKAGKYSSEFCSTPACSEGNSDCYFGNGSAYRGTHSLTESGASCLPWNSMILIGKVYTAQNPSAQALGLGKHNYCRNPDGDAKPWCHVLKNRRLTWEYCDVPSCSTCGLRQYSQPQFRIKGGLFADIASHPWQAAIFAKHRRSPGERFLCGGILISSCWILSAAHCFQERFPPHHLTVILGRTYRVVPGEEEQKFEVEKYIVHKEFDDDTYDNDIALLQLKSDSSRCAQESSVVRTVCLPPADLQLPDWTECELSGYGKHEALSPFYSERLKEAHVRLYPSSRCTSQHLLNRTVTDNMLCAGDTRSGGPQANLHDACQGDSGGPLVCLNDGRMTLVGIISWGLGCGQKDVPGVYTKVTNYLDWIRDNMRP
in vivo half life (in words) (in vivo): longer in vivo half life than native tPA | functional activity (in words): retains the functional activity of native tPA
